In paper PMC2794542 one finds ratio of FLAG-LRRK2 to V5-LRRK2 in the anti-FLAG IP and stoichiometry N data, which are given here for one substance.

The target in the assay is full length LRRK2, FLAG-tagged and V5-tagged copies co-expressed (human) (UniProt Q5S007). Put plainly: co-IP; 293T cells co-transfected with FLAG- and V5-LRRK2; gel filtration fractions 20-23 (α-complex, ~600 kDa) pooled, immunoprecipitated with anti-FLAG, blotted with anti-FLAG and anti-V5, densitometry. The settings on record: remark: other sources report otherwise. A general note: In gel filtration, larger molecules generally elute earlier.

What is called stoichiometry N is a count of units in the complex or per binding partner. Consider “full length LRRK2, FLAG-tagged and V5-tagged copies co-expressed, Q5S007 1-2527”, for which the ratio of FLAG-LRRK2 to V5-LRRK2 in the anti-FLAG IP was 1.87 and the stoichiometry N was determined as 2.
